{
  "source": "patent US20170051047A1",
  "key": {"[1]": {"biological_target": "T1, Clostridium difficile toxin A (whole toxin A) (Clostridium difficile), P16154", "settings": "remark: other sources report otherwise"}, "[2]": {"biological_target": "T1, Clostridium difficile toxin A (whole …)", "settings": "remark: other sources report otherwise", "remark": "listed apart in the source"}},
  "note": "Like-named read-outs stand apart in the source and are kept apart here.",
  "data": [
    {"binder": "CAN20G2 (antibody, V domains shown) VH: QIQLVQSGPEVKKPGETVKISCKASGYTFTNQGMNWVKQAPGKGLKWMGWINTNTGEPTYTEEFKGRFAFSLETSASTAYLQINNLKNEDTATYFCYVNYDYYTMDFWGQGTSVTVSS VL: QVVLTQSPAIMSASLGDRVTMTCTASSSVISTYLHWYQQKPGSSPKLWIYSTSTLASGVPPRFSGSGSGTSYSLTISSMEAEDAATYYCLQYHRSPRTFGGGTKLEIK", "values": [
      {"measurement": "Kd", "setting": "[1]", "result": 0.00419, "unit": "nM"},
      {"measurement": "koff", "setting": "[1]", "result": "4.35e-07", "unit": "s⁻¹"},
      {"measurement": "kon", "setting": "[1]", "result": 104000, "unit": "M⁻¹ s⁻¹"},
      {"measurement": "Kd", "setting": "[2]", "result": 0.166, "unit": "nM"},
      {"measurement": "koff", "setting": "[2]", "result": "1.8e-05", "unit": "s⁻¹"},
      {"measurement": "kon", "setting": "[2]", "result": 108000, "unit": "M⁻¹ s⁻¹"}
    ]}
  ]
}
